One block for each binder: values may come before it.
Columns and labels:
[1] = molecular target: T1, human CD36 (on HEK 293 or SCC25 cells) (human, UniProt P16671 2-472); experiment: cell-based or functional assay
[2] = molecular target: T2, nonhuman primate CD36 (on HEK 293 cells) (cynomolgus monkey / rhesus macaque, UniProt P16671 2-472 (human entry)); experiment: FACS, HEK 293 cells transiently overexpressing CD36;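 also: antibody binding to transfected cells detected by flow cytometry with a fluorescent anti-human secondary antibody, EC50 from a four-parameter sigmoidal fit of mean fluorescence intensity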
T2 construct: also called non-human primate CD36 (cynomolgus)
T2 sequence (P16671 other isoform, or with tags, fused parts or gaps limits assumed): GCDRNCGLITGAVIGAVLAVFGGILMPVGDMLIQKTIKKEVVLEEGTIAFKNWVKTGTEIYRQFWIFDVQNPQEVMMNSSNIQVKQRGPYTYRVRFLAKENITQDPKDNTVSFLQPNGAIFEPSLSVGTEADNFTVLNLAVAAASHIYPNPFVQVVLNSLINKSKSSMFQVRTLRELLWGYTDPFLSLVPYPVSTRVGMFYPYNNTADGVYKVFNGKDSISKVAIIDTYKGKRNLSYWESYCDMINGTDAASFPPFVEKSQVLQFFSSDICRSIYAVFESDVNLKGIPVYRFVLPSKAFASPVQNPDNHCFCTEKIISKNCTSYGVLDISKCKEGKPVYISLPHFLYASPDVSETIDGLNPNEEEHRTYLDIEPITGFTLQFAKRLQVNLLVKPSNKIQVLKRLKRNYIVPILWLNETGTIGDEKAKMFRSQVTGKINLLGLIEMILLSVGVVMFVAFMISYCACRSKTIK

[3] = molecular target: T3, purified biotin-tagged human CD36 (human, UniProt P16671 30-439, limits assumed, biotin tag, site not stated); experiment: AlphaScreen competition; competitor 1G04 on acceptor beads;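 also: streptavidin donor beads excited at 680 nm release singlet oxygen, and the light signal needs a nearby acceptor bead, with 30 min donor-bead incubation at 25 °C in the dark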
T3 sequence (P16671 30-439 limits assumed): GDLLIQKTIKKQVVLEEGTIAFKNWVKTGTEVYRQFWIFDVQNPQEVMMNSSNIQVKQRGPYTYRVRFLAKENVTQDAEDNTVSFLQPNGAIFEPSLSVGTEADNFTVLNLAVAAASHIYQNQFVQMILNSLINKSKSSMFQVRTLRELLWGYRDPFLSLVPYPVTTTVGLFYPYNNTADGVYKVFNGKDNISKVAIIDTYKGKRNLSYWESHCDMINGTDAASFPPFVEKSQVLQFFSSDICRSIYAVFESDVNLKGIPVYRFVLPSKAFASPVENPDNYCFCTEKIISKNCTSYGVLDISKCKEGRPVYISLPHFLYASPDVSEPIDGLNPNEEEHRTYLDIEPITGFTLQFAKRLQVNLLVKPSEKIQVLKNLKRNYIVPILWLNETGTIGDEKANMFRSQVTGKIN

[4] = molecular target: T3, purified biotin-tagged human CD36; experiment: AlphaScreen competition; competitor FA6-152 on acceptor beads
Method: (§1) This was done using the AlphaScreen® bead-based microplate assay. […] AlphaLISA® Streptavidin Donor Beads were then added and the mix incubated for 30 min at 25° C. in the dark. The donor bead contains a photosensitizer, which upon excitation by light at 680 nm, converts oxygen (O₂) into an excited form, singlet oxygen. Singlet oxygen molecules have a reduced lifetime (4 microseconds half-life) and can diffuse approximately 200 nm in solution before falling back to ground state. In the absence of acceptor beads, the singlet oxygen molecules fall back to ground state without producing any light signal.

[5] = molecular target: T1, human CD36 (on HEK 293 or SCC25 cells); experiment: cell-based or functional assay; remark: listed apart in the source
[6] = molecular target: T1, human CD36 (on HEK 293 or SCC25 cells); experiment: FACS, HEK 293 cells transiently overexpressing CD36;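 also: antibody binding to transfected cells detected by flow cytometry with a fluorescent anti-human secondary antibody, EC50 from a four-parameter sigmoidal fit of mean fluorescence intensity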
[7] = molecular target: T4, mouse CD36 (on HEK 293 cells) (mouse, UniProt Q08857 1-472); experiment: as above
T4 construct: also called Murine CD36
T4 sequence (Q08857 whole entry): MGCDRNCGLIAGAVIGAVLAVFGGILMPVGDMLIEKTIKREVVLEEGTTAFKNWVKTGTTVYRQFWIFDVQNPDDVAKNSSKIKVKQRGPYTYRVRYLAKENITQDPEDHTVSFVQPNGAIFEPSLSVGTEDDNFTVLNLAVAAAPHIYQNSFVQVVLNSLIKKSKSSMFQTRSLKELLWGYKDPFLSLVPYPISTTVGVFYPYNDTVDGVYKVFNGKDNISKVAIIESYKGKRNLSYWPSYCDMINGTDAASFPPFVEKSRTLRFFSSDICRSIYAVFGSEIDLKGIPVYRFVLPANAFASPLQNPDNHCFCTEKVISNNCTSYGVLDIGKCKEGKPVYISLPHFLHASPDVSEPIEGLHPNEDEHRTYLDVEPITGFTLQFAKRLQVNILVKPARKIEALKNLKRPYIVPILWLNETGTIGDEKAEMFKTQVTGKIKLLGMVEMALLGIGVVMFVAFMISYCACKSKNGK

[8] = molecular target: T3, purified biotin-tagged human CD36; experiment: AlphaScreen competition; competitor 11G04 on acceptor beads
Method: as §1

[9] = molecular target: T1, human CD36 (on HEK 293 or SCC25 cells); experiment: cell-based or functional assay; remark: listed apart in the source
[10] = molecular target: T1, human CD36 (on HEK 293 or SCC25 cells); experiment: FACS, SCC25 cells stably overexpressing human CD36
Method: After transiently transfecting the HEK 293 cells with a CD36 expression construct, cells were treated with three-fold serial dilution of each candidate antibody (10 dilutions starting at 500 nM). […] After incubation with the cells, an anti-human fluorescently labelled antibody was added to the cell media, allowed to incubate further, and the unbound antibody was washed off of the cells. Subsequently, the cells were subjected to FACS analysis to determine antibody binding to the cells. The results were fitted to a sigmoidal titration curve. Using a nonlinear regression model, the EC₅₀ values for each antibody were calculated from the GeoMFI and MFI values using the log(agonist) versus response (four parameters) fitting on the data transformed according to X=Log[X] in GraphPad PRISM.

human CD36 (His-tagged) = molecular target: T5, human CD36 (His-tagged) (human, UniProt P16671 30-439); experiment: SPR (Biacore T200), His-captured CD36, bivalent analyte model
T5 construct: not shown: His tag
T5 sequence (P16671 30-439 limits assumed): as the sequence (P16671 30-439 limits assumed) above

[11] = molecular target: T1, human CD36 (on HEK 293 or SCC25 cells); experiment: FACS, SCC25 cells stably expressing human CD36
Method: SCC25 cells were treated with 10-fold serial dilution of each antibody (5 dilutions starting at 100 nM). After incubation with the cells, an anti-human fluorescently labelled antibody was added to the cell media, allowed to incubate further, and the unbound antibody was washed off of the cells. Subsequently, the cells were subjected to FACS analysis to determine antibody binding to the cells. The results were fitted to a sigmoidal titration curve. Using a nonlinear regression model, the EC₅₀ values for each antibody were calculated from the GeoMFI and MFI values using the log(agonist) versus response (four parameters) fitting on the data transformed according to X=Log[X] in GraphPad PRISM.

[12] = molecular target: T6, human CD36 (Sino Biological) (human, UniProt P16671 30-439); experiment: ELISA, plates coated with human CD36 (Sino Biological), antibody titrated, OD630nm
T6 construct: Bought protein coated on ELISA plates
T6 sequence (P16671 30-439 limits assumed): as above
From the text: Binding was first tested using an ELISA assay in which 96-well ELISA plates were coated with human CD36 (Sino Biological) or mouse CD36 protein.
For Percent Fatty Acid Uptake Inhibition in this document: test concentration or dose not given here.

T1 sequence (P16671 2-472 limits assumed): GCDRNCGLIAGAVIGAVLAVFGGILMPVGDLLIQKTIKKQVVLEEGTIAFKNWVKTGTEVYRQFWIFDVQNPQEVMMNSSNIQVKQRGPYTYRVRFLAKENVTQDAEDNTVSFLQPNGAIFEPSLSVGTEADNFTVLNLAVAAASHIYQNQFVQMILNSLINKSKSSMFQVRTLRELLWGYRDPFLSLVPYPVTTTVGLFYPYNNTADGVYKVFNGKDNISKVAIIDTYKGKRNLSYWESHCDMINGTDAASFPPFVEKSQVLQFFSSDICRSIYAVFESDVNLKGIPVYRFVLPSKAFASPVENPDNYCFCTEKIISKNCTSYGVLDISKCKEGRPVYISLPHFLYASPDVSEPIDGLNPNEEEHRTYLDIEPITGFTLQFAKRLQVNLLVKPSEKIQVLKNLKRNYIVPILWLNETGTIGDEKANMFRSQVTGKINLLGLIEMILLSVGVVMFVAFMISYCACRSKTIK

IC50 of fatty acid uptake inhibition (BODIPY FL C16, HEK hCD36 cells) [1]: 0.18 nM
IC50 of oxLDL uptake inhibition (DiI-oxLDL, SCC25 cells) [5]: 0.35 nM
EC50 [6]: 0.35 nM
EC50 [2]: 0.33 nM
EC50 [7]: 0.69 nM
EC50 [3]: 1.45 nM
EC50 [8]: 1.05 nM
B2: 38G04 (antibody, human IgG1, V domains shown)
VH: AVTLDESGGGLQTPGRALSLVCKASGFTFSSYNMFWVRQAPGKGLEWVAGIDDDGSFTLYGAAVKGRATISRDNGQSTVRLQLNNLRAEDTGTYYCARDSGAVSIDAWGHGTEVIVSS
VL: ALTQPSSVSANPGETVKITCSGGDSDYGWYQQKSPGSAPVTVIYQNDKRPSDIPSRFSGSASGSTATFTITGVQAEDEAVYYCGGWDGSYDGAVFGAGTTLTVL
notes: Chimeric: chicken variable regions on human IgG1 LALA (L234A/L235A); also called 038G04

IC50 of fatty acid uptake inhibition (BODIPY FL C16, HEK hCD36 cells) [1]: 0.3 nM
IC50 of oxLDL uptake inhibition (DiI-oxLDL, SCC25 cells) [5]: 1.14 nM
EC50 [6]: 0.62 nM
EC50 [2]: 1.45 nM
EC50 [7]: 2.29 nM
EC50 [3]: 9.91 nM
EC50 [8]: 3.3 nM
B4: 37G04 (antibody, human IgG1, V domains shown)
VH: AVTLDESGGGLQTPGGALSLVCKASGFTFSDYDMLWVRQAPGKGLEFVAGINAASTYTDYGAAVKGRATISRDNGQSTVRLQVNNLRAEDTGTYYCAKSSYGGGWSDVGSIDAWGHGTEVIVSS
VL: ALTQPSSVSANPGETVKITCSGDRSYYGYGWYQQKAPGSAPVTVIYWDDKRPSDIPSRFSGSTSGSTATLTITGVQAEDEAVYFCGNMDSSYVGMFGAGTTLTVL
notes: Chimeric: chicken variable regions on human IgG1 LALA (L234A/L235A); also called 037G04

Percent Fatty Acid Uptake Inhibition [9]: 43.5%
IC50 of fatty acid uptake inhibition (BODIPY FL C16, HEK hCD36 cells) [1]: 0.8 nM
EC50 [10]: 0.22 nM
EC50 [6]: 0.32 nM
EC50 [2]: 1.63 nM
EC50 [7]: 0.96 nM
EC50 [8]: 0.65 nM
B9: 30G04 (antibody, human IgG1, V domains shown)
VH: EVQLVESGGGVVQPGESLKLSCESNEYEFPSHDMSWVRKTPERRLELVAAINSDGAITYYPDTMERRFIISRDNTKKTLYLQMSSLKSEDTAMYYCARHGQTGTWFAYWGQGTLVTVSA
VL: ETTVTQSPASLSMAIGEKVTIRCITSTDIDDDMNWYQQKPGEPPKLLISEGNTLRPGVPSRFSSSGYGTDFVFTIENMLSEDVADYYCLQSDNLPLTFGAGTKLELK
notes: Chimeric: mouse variable regions on human IgG1 LALA (L234A/L235A); also called 030G04

EC50 [6]: 0.91 nM
EC50 [2]: 0.63 nM
EC50 [3]: 0.15 nM
EC50 [4]: 1.8 nM
B11: 27G04 (antibody, human IgG1, V domains shown)
VH: EVQLQQSGAELLKPGASVKISCKTTGYTFSNYWIEWVKQRPGHGLEWIGEILPGSGSPKYNEKFKGKATLTADTSSNTAFMQLSSLTSEDSAVYYCAPFILENYFDYWGQGTTLTVSS
VL: DIQMTQSHKFMSTSVGDRVSITCKASQDVSTAVAWYQQKPGQSPKLLIYSASYRYTGVPDRFTGSGSGTDFTFTISSVQAEDLAVYYCQQHYSTPRTFGGGTKLEIK
notes: Chimeric: mouse variable regions on human IgG1 LALA (L234A/L235A)

IC50 of fatty acid uptake inhibition (BODIPY FL C16, HEK hCD36 cells) [1]: 0.08 nM
EC50 [6]: 0.36 nM
EC50 [2]: 0.32 nM
EC50 [3]: 0.37 nM
EC50 [4]: 33.8 nM
B13: 29G04 (antibody, human IgG1, V domains shown)
VH: QVQLQQSGTELVKPGASVKLSCKASGYTFTSYWMHWVKQRPGQGLEWIGEIDPSDSHTNYNQKFKGKATLTVDKSSSTAYMQLSSLTSEDSAVYYCAPIYYGLDNWGQGTTLTVSS
VL: DIVLTQSQKFMSTSVGDRVSVTCKASQNVGTNVAWYQQKPGQSPKALIYSASYRYSGVPDRFTGSGSGTDFTLTISNVQSEDLAEYFCQQYNSYPLTFGAGTKLELK
notes: Chimeric: mouse variable regions on human IgG1 LALA (L234A/L235A); also called 029G04

Further lines, the binder ahead of its results:

B1: 15G04 (antibody, human IgG1, V domains shown)
VH: QVQLQQSGPELVKPGASVKISCKASGYTFSTSWMNWVKQRPGQGLEWIGRIYPGDGDTNYNGKFKGKATLTADTSSSTAYMQLSSLTSVDSAVYFCAREVYYGGYEDYGMDYWGQGTSVTVSS
VL: DVVMTQTPLSLPVSLGDQASISCRSSQSLLHTNVNTYLHWYLQKPGQSPKLLIYKVSNRFSGVPDRFSGSGSGTDFTLKISRVEAEDLGVYFCSQSTHVPYTFGGGTKLEIK
notes: Chimeric: mouse variable regions on human IgG1 LALA (L234A/L235A); also called 015G04
IC50 of fatty acid uptake inhibition (BODIPY FL C16, HEK hCD36 cells) [1]: > 1000 nM
EC50 [2]: 2.2 nM
EC50 [3]: 0.41 nM
EC50 [4]: 5.65 nM

B3: 13G04 (antibody, human IgG1, V domains shown)
VH: QVQLQQSGAELVRPGASVKLSCKASGYTFTSYWMNWVKQRPGQGLEWIGMIDPSDNETHYNQMFKDKATLTVDKSSSTAYMQLSSLTSEDSAVYYCARSDYGNGYSFYLDVWGAGTTVTVSS
VL: DIVLTQSPASLAVSLGQRATISCRASESVDSYGNSFMHWYQQKPGQPPKLLIYRASNLESGIPARFSGSGSRTDFTLTINPVEADDVATYYCQQSNEDPWTFGGGTKLEIK
notes: Chimeric: mouse variable regions on human IgG1 LALA (L234A/L235A); also called 013G04
Percent Fatty Acid Uptake Inhibition [9]: 52.8%
IC50 of fatty acid uptake inhibition (BODIPY FL C16, HEK hCD36 cells) [1]: 0.2 nM
IC50 of oxLDL uptake inhibition (DiI-oxLDL, SCC25 cells) [5]: 0.26 nM
EC50 [10]: 0.26 nM
EC50 [6]: 0.31 nM
EC50 [2]: 1.06 nM
EC50 [7]: 5.93 nM
EC50 [3]: 0.17 nM
Kd (human CD36 (His-tagged)): 1.5 nM
koff (human CD36 (His-tagged)): 0.0037 s⁻¹
kon (human CD36 (His-tagged)): 2.4e+06 M⁻¹ s⁻¹
EC50 [4]: 46.8 nM

B5: 1G05 (antibody, V domains shown)
VH: QVQLKQSGADLVRPGASVKLSCKASGYTFTDYYINWVKQRPGQGLEWIARIYPGSGNTYYNEKFKGKATLTAEKSSSTAYMQLSSLTSEDSAVYFCARGIGGGFGMDYWGQGTSVTVSS
VL: SIVMTQTPKFLLVSAGDRITITCKASQSVSDDVAWYQQKPGQSPKLLIYYASNRYTGVPDRFTGSGYGTDFTFTISTVQAEDLAVYFCQQDYSSPLTFGAGTKLEIK
notes: also called LALAPG
EC50 [11]: 0.38 nM
EC50 (read off the curve) [12]: ~0.1 nM

B6: 1G07 (antibody, V domains shown)
VH: QVQLKQSGADLVRPGASVKLSCKASGYTFTDYYINWVKQRPGQGLEWIARIYPGSGNTYYNEKFKGKATLTAEKSSSTAYMQLSSLTSEDSAVYFCARGIGGGFGMDYWGQGTSVTVSS
VL: SIVMTQTPKFLLVSAGDRITITCKASQSVSDDVAWYQQKPGQSPKLLIYYASNRYTGVPDRFTGSGYGTDFTFTISTVQAEDLAVYFCQQDYSSPLTFGAGTKLEIK
notes: also called SPLE
EC50 [11]: 0.47 nM

B7: 19G04 (antibody, human IgG1, V domains shown)
VH: EVQLQQSGPELVKPGASVKISCETSGHTFTEYTMHWVKQSHGKSLEWIGGIYPNNGATKYNQKFKGKATLTVDKSSSTAYMELRSLTSEDSAVYYCARDRYDVWFAYWGQGTLVTVSA
VL: ETTVTQSPASLSMAIGEKVTIRCITSTDIDDDMNWYQQKPGEPPKLLISEGNTLRPGVPSRFSSSGYGTDFIFTIENMLSEDVADYYCLQSDNLPLTFGAGTKLELK
notes: Chimeric: mouse variable regions on human IgG1 LALA (L234A/L235A); also called 019G04
Percent Fatty Acid Uptake Inhibition [9]: 53.3%
IC50 of fatty acid uptake inhibition (BODIPY FL C16, HEK hCD36 cells) [1]: 0.05 nM
EC50 [10]: 0.75 nM
EC50 [6]: 1.92 nM
EC50 [2]: 5.45 nM
EC50 [7]: 22.5 nM
EC50 [8]: 5.23 nM

B8: 6G04 (antibody, human IgG1, V domains shown)
VH: QVQLQQSGAELVMPGASVKMSCKASGYTFTDYWMHWVKQRPGQGLEWIGSIDTSDSYTTYSQKFKGKATLTVDESSSTAYMELARLTSEDSAIYYCVRGEDYEGTWFAYWGQGTLVTVSA
VL: ETTVTQSPASLSVATGEKVTIRCITSTDIDDDMNWYQQKPGEPPKLLISEGNTLRPGVPSRFSSSGYGTDFVFTIENTLSEDVADYYCLQSDNMPLTFGAGTKLELK
notes: Chimeric: mouse variable regions on human IgG1 LALA (L234A/L235A); also called 06G04; 006G04
Percent Fatty Acid Uptake Inhibition [9]: 35.1%
IC50 of fatty acid uptake inhibition (BODIPY FL C16, HEK hCD36 cells) [1]: 0.1 nM
IC50 of oxLDL uptake inhibition (DiI-oxLDL, SCC25 cells) [5]: 0.27 nM
EC50 [10]: 0.56 nM
EC50 [6]: 0.53 nM
EC50 [2]: 4.85 nM
EC50 [7]: 1.51 nM
EC50 [3]: 1.15 nM
Kd (human CD36 (His-tagged)): 0.51 nM
koff (human CD36 (His-tagged)): 0.0002 s⁻¹
kon (human CD36 (His-tagged)): 390000 M⁻¹ s⁻¹
EC50 [4]: 1040 nM

B10: 16G04 (antibody, human IgG1, V domains shown)
VH: EVQLQQSGPELVKPGASVKISCKTSGYTFTEYTMHWVKQSHGKSLEWIGGINPYNGGTAYNQKFKNKATLTVDISSNTAFMEFRSLTSEDSAVYYCASDYFYGDANPWFAYWGQGTLVTVSA
VL: ETTVTQSPASLSMAIGEKVTIRCITSTDIDDDMNWYQQKPGEPPKLLISEGNTLRPGVPSRFSSSGYGTDFVFTIENMLSEDVADYYCLQSDNLPLTFGAGTKLELK
notes: Chimeric: mouse variable regions on human IgG1 LALA (L234A/L235A); also called 016G04
Percent Fatty Acid Uptake Inhibition [9]: 45.2%
IC50 of fatty acid uptake inhibition (BODIPY FL C16, HEK hCD36 cells) [1]: 0.15 nM
EC50 [10]: 0.57 nM
EC50 [6]: 1.36 nM
EC50 [2]: 5.4 nM
EC50 [7]: 18.2 nM
EC50 [3]: 9.19 nM
EC50 [8]: 3.73 nM

B12: 4G04 (antibody, human IgG1, V domains shown)
VH: QVQLQQPGSELRSPGSSVKLSCKDFDSEVFPIAYMTWVRQKPGHGFEWIGDILPSIGGTIYGEKFEDKATLDADTVSNTAYLELNSLTSEDSAIYYCARDYYGSSYGYFDVWGAGTAVTVSS
VL: DIVLTQSQKFMSTSVGDRVSVTCKASQNVGTNVAWYQQKPGQSPKALIYSASYRYSGVPDRFTGSGSGTDFTLTISNVQSEDLAEYFCQQYNSYPYTFGGGTKLEIK
notes: Chimeric: mouse variable regions on human IgG1 LALA (L234A/L235A); also called 04G04; 004G04
IC50 of fatty acid uptake inhibition (BODIPY FL C16, HEK hCD36 cells) [1]: 483 nM
EC50 [2]: 27.7 nM
EC50 [3]: 0.11 nM
EC50 [4]: 9.89 nM

Reference: patent US20250206836A1 (ONA THERAPEUTICS S L, published 2025)
